Measurements: paper PMC3701619, “High Levels of DegU-P Activate an Esat-6-Like Secretion System in Bacillus subtilis” (PLoS ONE, 2013)

B1: YukE-His6 (natural protein, B. subtilis, UniProt C0SP85 1-97, looked up)
chain: MAGLIRVTPEELRAMAKQYGVESQEVLNQVDRLNRMISDLKSMWEGASSEAFADQYEQLKPSFIKMSDLLQDVNQQLDQTANTLESTDQDIANQIRG
notes: YukE, WXG100 protein of Bacillus subtilis; YukE-His6 is 12.17 kDa; The vector may add linker residues between YukE and the His6 tag; The vector is named pIVEX3.2d once and pIVEX2.3d once; also called recombinant YukE; YukE C-terminally tagged with a hexahistidine tail; not shown: His6, C-terminal, kept
B2: native YukE (natural protein, UniProt C0SP85 1-97, looked up)
chain: B1 chain
notes: YukE, WXG100 protein of Bacillus subtilis, as secreted to the culture medium; predicted mass of the native dimer ~22 kDa; the protein here is from an ATCC 6051 derivative; also called YukE present in a concentrated culture supernatant of strain W654

Tests used:
[1] = molecular target: the molecule itself; assay: cross-linking; pure YukE-His6 (0.4 to 10.3 uM with 0.25 mM BS3; 20 to 84 uM with 1 mM BS3) in YukE buffer (50 mM HEPES-Na pH 7.0, 300 mM NaCl), 30 min at room temperature; 15% SDS-PAGE, Coomassie staining or Western blot with anti-YukE-His6
[2] = molecular target: the molecule itself; assay: cross-linking; concentrated, dialysed (25 mM HEPES pH 7, 250 mM NaCl) cell-free supernatant of a W654 culture at T2, 2.5 ug total protein, 1 mM or 5 mM BS3, 30 min at room temperature; Western blot with anti-YukE-His6

Row | Protein | stoichiometry N [1] | stoichiometry N [2]
1 | B1 | 2 | –
2 | B2 | – | 2
